In the supplement of paper PMC12042874:
± gives the uncertainty stated by the source.

Experiment: amyloid nucleation score (Sup35N fusion, yeast selection) (log enrichment); library NNK2; higher = more nucleation; inactive = no reads after selection
Outline: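 Sup35N fusions to peptides of 20 random codons were expressed in psi-negative yeast, induced 24 hours with 100 μM copper sulfate, and grown 7 days at 30°C on medium lacking adenine and uracil. Input and output plasmid inserts were sequenced by Illumina. The nucleation score is the DiMSum log enrichment of output over input reads, centred on the mode score of non-aggregating sequences. Sequences with under 100 input reads were excluded.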

Row | Substance | amyloid nucleation score
1 | SVGRHS | -0.841 ± 0.62
2 | SVIEISECLERVVRWHRVAG | 1.76 ± 0.33
3 | SVKHGMLCYTLLDNMRCTVE | -0.087 ± 0.26
4 | SVKILPVISTTPFGV | -0.922 ± 0.39
5 | SVLEANMHAVWTGRYEN | 0.713 ± 0.22
6 | SVNAIRTQGLRSRMQFMKTG | -0.394 ± 1.1
7 | SVPRYRSLMKRCH | 0.189 ± 0.32
8 | SVQVMCQSWPLSPLFAPRHR | 5.92 ± 0.039
9 | SVRGRNDESAMLTLQRELRY | -0.343 ± 1.1
10 | SVSLDMGFSLDSHMRGEGRS | 5.22 ± 0.057
11 | SVTVTSLWHGTEL | -0.22 ± 1.1
12 | SVTYWGWPTILAVRKCLFNS | 2.5 ± 0.091
13 | SVVMTIHNIGWMLRCSGIVY | -0.823 ± 0.56
14 | SVVVWDSSPCIGGSRVADS | 0.56 ± 0.57
15 | SVWCWDHSILLGFNLCNRKM | 6.648 ± 0.062
16 | SVWDYC | -0.053 ± 0.39
17 | SVYDPAYVLNMNTLSTSSNL | 0.451 ± 0.33
18 | SVYEIYWRVT | -0.348 ± 0.65
19 | SVYENYRVTISLSRSSITSC | -1.1 ± 0.61
20 | SVYGQRNTIIFEFSWMRTAS | 7.492 ± 0.04
21 | SVYVCVKWESVSVLVLY | 1.86 ± 0.12
22 | SWCFYMKGEWWYLLFHSNRS | -1.73 ± 0.55
23 | SWCIMALRTF | 0.249 ± 0.65
24 | SWCVNVLAYSEKAFSRCVVM | 8.583 ± 0.048
25 | SWEKIGDCYIRWYLLHAGCL | inactive

Row | Substance | amyloid nucleation score
26 | SWELFSGAWTLGNRYPFRHK | -0.079 ± 0.55
27 | SWETKVHIYMTDMLFSRHMS | 2.63 ± 0.086
28 | SWKDYHN | inactive
29 | SWLSYSVRSM | inactive
30 | SWMRFVKKIRQDAVRAVLIG | 1.36 ± 0.4
31 | SWSWSMGGNFRMVWSL | 5.33 ± 0.06
32 | SWTCHSFYFSDSFRHGYR | 2.63 ± 0.069
33 | SWTSIVQIVILCGFRQWLAR | 0.076 ± 0.39
34 | SWWIVFWGHTTTRWNCSLGD | -0.831 ± 0.35
35 | SYAESLPLSDYNAVVRFPWT | -0.304 ± 1.1
36 | SYCLDDMRPWLHESTLSLSM | -0.033 ± 0.3
37 | SYCYWMFSVLGGSSASEFRY | inactive
38 | SYGMRTEWTVCIAIRLHASN | 1.31 ± 0.52
39 | SYGVLGDLASGTSRTID | -1.25 ± 0.64
40 | SYHWTGVFGLVHDFGLCCGS | 0.425 ± 0.38
41 | SYIHRAWAYM | inactive
42 | SYLKETMTGLLPLG | inactive
43 | SYNLNSNRVESIDFSSIIIV | -0.459 ± 1.1
44 | SYNVFDVQIVLRYIVKLFTG | inactive
45 | SYPVDEMMRFCLFVMDTGQL | 0.106 ± 0.54
46 | SYRLYFFMGFDMLYLCMG | -0.177 ± 0.79
47 | SYTVAYISYFMLLLDGWGNR | 0.815 ± 0.12
48 | SYVDNWNISRVYLRLTYSVY | -0.96 ± 0.49
49 | SYVQMTDT | -0.146 ± 1
50 | SYVVCSVIGYYDYLRSRPSC | 9.631 ± 0.036

Row | Substance | amyloid nucleation score
51 | SYYEWARGTSVVLIAFVTSF | -0.189 ± 0.48
52 | SYYGFLSFCSKTCMPLMWLE | -0.844 ± 0.54
53 | TADISLYLRHST | 6.442 ± 0.049
54 | TAFNIVSCSGLCSYYQFRF | 8.109 ± 0.03
55 | TAHYDVGC | -0.283 ± 1
56 | TANKLLVSIIKIEEYVSRGT | 4.73 ± 0.058
57 | TAWHFPCRQRDLQLVSKVTG | inactive
58 | TCCQDYLLIWYCMDSIRNVR | 9.611 ± 0.034
59 | TCKVRLRHVDYNCIMVLLLM | -0.359 ± 0.45
60 | TCLSQQCTEIEWIKFTPMSR | 4.31 ± 0.056
61 | TCSGWTWRQGLLVLSCRMIL | 0.287 ± 0.38
62 | TCSRERGRRWFGICASYSCE | 0.629 ± 0.47
63 | TCVALSYLVGGSALNS | -0.818 ± 0.78
64 | TCVCWGPCRSV | -0.895 ± 1
65 | TCVRWYGNIW | -0.424 ± 0.27
66 | TCYWRGLAGYR | 3.28 ± 0.14
67 | TDCMPMHVYGDYYLMGMSRE | -0.555 ± 0.33
68 | TDCRFIIVYMVIGSFLYTRV | -0.747 ± 1.1
69 | TDHMHKISRVHRDKKMSVGF | -0.707 ± 1.1
70 | TDLECKQLG | 1.88 ± 0.11
71 | TEELRRFCGSFCTGYISMVW | inactive
72 | TEIHNT | inactive
73 | TESGGSLYNPQLIPDIQGSH | -0.552 ± 1.1
74 | TFAIIRIII | 1.37 ± 0.33
75 | TFHGFMCGQTLRGPFRLSWW | 3.95 ± 0.088

Row | Substance | amyloid nucleation score
76 | TFKFWCVTKETEQHVSYASR | 4.54 ± 0.067
77 | TFLSHEGRGLRCLYYHMMPG | 3.79 ± 0.14
78 | TFLSSC | 0.096 ± 0.32
79 | TFLWKFMLNVTTFFIFPKPV | -1.77 ± 1
80 | TFMWVDSMP | -0.525 ± 0.48
81 | TFNIGNELVT | -0.99 ± 0.37
82 | TFNLKPRFLFV | 5.18 ± 0.087
83 | TFNLVILGVGHSHHFQRNNH | 8.269 ± 0.046
84 | TFRLRECWCDADLRVGVMSL | 0.778 ± 0.47
85 | TFRWCHCYLTKEHVRFTCRA | 1.55 ± 0.53
86 | TFSVQAVNLFSIWVLSGPGD | 8.02 ± 0.034
87 | TFTSRGMMSLGFGRR | 6.01 ± 0.08
88 | TFVGSFEILAGNVLCVNKTK | 6.031 ± 0.048
89 | TFVHIIHNFVGVQHFKKLGC | 5 ± 0.094
90 | TGAYI | -1.94 ± 0.75
91 | TGCDVLRIVTRMMGKNKRYF | -0.047 ± 1.1
92 | TGCNFHGRRFRCGYNGLGNP | -0.59 ± 0.37
93 | TGDMQVAVYCVILGGFSMGM | 4.44 ± 0.055
94 | TGFKCSLLTY | -0.91 ± 0.62
95 | TGGRNVHNCNNNHASSWPRC | -1.05 ± 0.76
96 | TGHWQLQNSSQA | 0.841 ± 0.28
97 | TGILMWAGLQVHV | 1.86 ± 0.13
98 | TGWSGRGMVKSDPYRACGGD | -0.11 ± 0.35
99 | TGYVTRIVAAFCSQKIFVWV | -0.547 ± 0.49
100 | THDKLHFLAFVFSPLFLTTM | inactive

Row | Substance | amyloid nucleation score
101 | THSHTSCKDASSEMRSPCNV | 0.264 ± 0.33
102 | THSNWTKNSVSSIYCIKILF | 6.647 ± 0.037
103 | THSWGFSLYTFLVYINLSYI | -0.545 ± 1
104 | THTGLGG | 0.654 ± 0.8
105 | THVRVEVLS | inactive
106 | THYNVGLINNIINNLILVYI | 4.52 ± 0.12
107 | TICDTLGYLTRSWYLSYESS | -0.545 ± 0.32
108 | TICWHGFNR | 0.119 ± 0.76
109 | TIFMAYTWLNYTVAFLSNVR | -1.01 ± 0.61
110 | TIFSHVYLALLR | 0.382 ± 0.8
111 | TIGANPRVLDG | 0.316 ± 0.39
112 | TIIIREQSKPFPCLE | 0.931 ± 0.74
113 | TIKTALMYIMRYSFRSYRDF | -1.02 ± 0.61
114 | TILCFCAC | 4.86 ± 0.056
115 | TIVWLGRPLYTGFKNTKRGH | inactive
116 | TIWRCFLT | 0.685 ± 0.33
117 | TKAYNTFLRPETVRLSESTK | 0.9 ± 0.18
118 | TKFMIYRDYSLVKSHH | inactive
119 | TKQPSFTCPGLSSRILRRLK | 3.04 ± 0.18
120 | TKTTWSDPGG | 0.922 ± 0.43
121 | TKVMQGVNSMARGV | 1.08 ± 0.39
122 | TKYDLHPMIVSFECDRHLMW | 0.411 ± 0.49
123 | TLAFCFFLTKLSVQCFLYPP | 0.241 ± 0.8
124 | TLCMSRGNSYCCMQSFSEKD | 5.05 ± 0.063
125 | TLCVAIMYMHLGYAL | 0.178 ± 0.5

Row | Substance | amyloid nucleation score
126 | TLCVGVFAHTAMRCRECHAA | 5.479 ± 0.043
127 | TLFLSNFRFRCRFPDHALIS | -1.3 ± 0.48
128 | TLFRSELFAV | 0.495 ± 0.56
129 | TLKLALEFLNEIYEEPVKCR | -1.36 ± 0.48
130 | TLKRSRPVLYNLYNGFVVVA | 2.25 ± 0.21
131 | TLLVKSMGGSLET | 4.11 ± 0.044
132 | TLLYKFTDCTVMMAIRVARR | 1.45 ± 0.52
133 | TLMYSQSAIDWTMSSPGRCR | 1.49 ± 0.36
134 | TLQMGQSMPSFFGLRWAVYR | 0.503 ± 0.43
135 | TLRVLCTVCYSMDRVAA | inactive
136 | TLSCKFIKGWLIQQYSHNKD | -0.187 ± 0.76
137 | TLSCSYVCAPTVYVQSSRPT | 1.27 ± 0.18
138 | TLSVTEGYSNLTSMWYGCKR | 3.23 ± 0.15
139 | TLTILRVTCPLFSDGIMFKR | 0.609 ± 0.47
140 | TLTNHWLRSLCITSKGTLSC | inactive
141 | TLTRGSISSIVDASWNMEKT | -0.061 ± 0.46
142 | TMELFLRRFYIWIKDIDNGR | inactive
143 | TMGYEFMQILLDLRNLSCSY | 3.64 ± 0.097
144 | TMHYYLWDSN | 4.88 ± 0.1
145 | TMILCRKYNASWMIVARNDL | -0.311 ± 1.1
146 | TMLETLRARADLMCQVWYSV | 0.964 ± 0.4
147 | TMWRVIGSVYFVKFFSATLG | -0.07 ± 0.43
148 | TNCTDEGIILCHP | -0.19 ± 1.1
149 | TNDASYSIDLWW | -0.304 ± 0.18
150 | TNDHQFCESNMRVMSEGIGP | -0.284 ± 1.1

Row | Substance | amyloid nucleation score
151 | TNHFN | -1.08 ± 0.61
152 | TNKKVVRYPSPLPERSYGMR | 0.012 ± 0.74
153 | TNPASAGTYSRSYEFCSLRL | 1.59 ± 0.18
154 | TNPSSKPAWVTSR | 0.007 ± 0.79
155 | TNRLMVEVALIFRSINCVNR | -0.561 ± 0.38
156 | TPATVEYGDNCVYDY | -0.987 ± 0.44
157 | TPENFHLR | inactive
158 | TPLDIICEIMNFIYNTVFRL | -0.501 ± 1.1
159 | TPLTVYDFPYNEGCCAV | 1.7 ± 0.34
160 | TPNQGNPSGYFFDNSFMKPF | inactive
161 | TPNYLSHTVVCVCINNVLIF | 4.74 ± 0.058
162 | TPRIS | 0.647 ± 0.8
163 | TPTGSVLAYRVTISTKVVSL | 1.09 ± 0.38
164 | TPTYLRYIVVIYL | 2.41 ± 0.11
165 | TPVWVGVSLVPPIAPTTWIN | 0.288 ± 0.28
166 | TQLASIQPSVPCYIVYTVGL | 3.01 ± 0.085
167 | TQLTDASSELLPPGSRLQCS | 1.03 ± 0.36
168 | TQSIALINTRVELTVDEFSF | -0.111 ± 0.65
169 | TQVLYSSCFVVVLSYLSRQD | 4.51 ± 0.086
